The subject of one test is CD30(−) U-266 cells. Briefly: Binding to CD30(−) cells. The conditions noted are these: CD30(−) U-266 cells (not shown).
The subject of a further test is SU-DHL-16. Briefly: In vitro cytotoxicity, SU-DHL-16. Type of test: cell-based. To be noted: co-administration IC50 vs co-conjugate IC50.
The next test has as its system Granta-519. Briefly: In vitro cytotoxicity, Granta-519. Type of test: cell-based. To be noted: co-administration IC50 vs co-conjugate IC50.
The test system of the next test is Raji. Description: In vitro cytotoxicity, Raji. Type of test: cell-based. The conditions noted are these: hBU12 conjugates targeting CD19.
The next test has as its system Nalm-6. Description: In vitro cytotoxicity, Nalm-6. Type of test: cell-based. To be noted: hBU12 conjugates targeting CD19.
A further test relates to RL. Description: In vitro cytotoxicity, RL. Type of test: cell-based. The conditions noted are these: hBU12 conjugates targeting CD19.
The test system of a further test is WSU-DLCL2. Briefly: In vitro cytotoxicity, WSU-DLCL2. Type of test: cell-based. To be noted: hBU12 conjugates targeting CD19.
For test [1], the system named is MCF-7 breast carcinoma cells. Description: Colony forming assay, MCF-7. Type of test: cell-based. To be noted: ADC 100 ng/mL for 48 hours, recovery 7-9 days, N=2. As for the experimental part:
This analysis was conducted on either JHH-7 (hepatocarcinoma cells) or MCF-7 (LIV-1positive) cells using antigen specific dual-auristatin ADCs. […] A dual-auristatin ADC targeting the LIV-1antigen on MCF-7 cells also allowed for less outgrowth of resistant colonies compared to single-drug ADCs.
For testing of LIV-1 targeted ADCs, MCF-7 breast carcinoma cells (ATCC) were plated in 6-well tissue culture plates at a density of 10,000 cells per well. ADCs were added to cells at a concentration of 100 ng/mL for 48 hours. At this time, media was removed and cells were washed with PBS. Fresh media was added and the cells allowed to recover for 7-9 days. Cells were then washed with PBS, fixed with 3.7% paraformaldehyde, stained with 0.5% crystal violet, and then counted. Each condition was conducted with N=2.

For “cAC10: Chimeric anti-CD30 monoclonal antibody, naked antibody”, the “binding to CD30(−) U-266 cells” value with CD30(−) U-266 cells is given as “Neither cAC10 or cAC10-4-(3-1) bound”.

B1: hBU12 Co-Conjugate (conjugate, chains of the INN, looked up)
VH: QVQLQESGPGLVKPSQTLSLTCTVSGGSISTSGMGVGWIRQHPGKGLEWIGHIWWDDDKRYNPALKSRVTISVDTSKNQFSLKLSSVTAADTAVYYCARMELWSYYFDYWGQGTLVTVSS
VL: EIVLTQSPATLSLSPGERATLSCSASSSVSYMHWYQQKPGQAPRLLIYDTSKLASGIPARFSGSGSGTDFTLTISSLEPEDVAVYYCFQGSVYPFTFGQGTKLEIK
modifications: co-conjugate with two drug payloads
Turning to B1, the figures for the Fold difference in the test on SU-DHL-16 and in the test with Granta-519 were 2.5 and 41.5, respectively.

B2: hBU12-Linking Assembly Unit Aa-Comp. Ab (8) Comp. Aa (8) (conjugate, chains of the INN, looked up)
VH: QVQLQESGPGLVKPSQTLSLTCTVSGGSISTSGMGVGWIRQHPGKGLEWIGHIWWDDDKRYNPALKSRVTISVDTSKNQFSLKLSSVTAADTAVYYCARMELWSYYFDYWGQGTLVTVSS
VL: EIVLTQSPATLSLSPGERATLSCSASSSVSYMHWYQQKPGQAPRLLIYDTSKLASGIPARFSGSGSGTDFTLTISSLEPEDVAVYYCFQGSVYPFTFGQGTKLEIK
modifications: linker assembly with compounds Ab and Aa
One may read the IC50 as the concentration that inhibits the measured activity by half. A low value points to inhibition by little substance. Take B2: the figures for the IC50 with Raji, with Nalm-6 and in the test on RL were 1.6 ng/mL, 2 ng/mL and 1 ng/mL, respectively.

B3: hBU12-Linking Assembly Unit Aa-Comp. Ah (8) (conjugate, chains of the INN, looked up)
VH: QVQLQESGPGLVKPSQTLSLTCTVSGGSISTSGMGVGWIRQHPGKGLEWIGHIWWDDDKRYNPALKSRVTISVDTSKNQFSLKLSSVTAADTAVYYCARMELWSYYFDYWGQGTLVTVSS
VL: EIVLTQSPATLSLSPGERATLSCSASSSVSYMHWYQQKPGQAPRLLIYDTSKLASGIPARFSGSGSGTDFTLTISSLEPEDVAVYYCFQGSVYPFTFGQGTKLEIK
modifications: linker assembly with compound Ah
For B3, the IC50 in the test on Raji worked out at 97 ng/mL; in the test on WSU-DLCL2, 7 ng/mL; in the test with Nalm-6, 9 ng/mL; with RL, 60 ng/mL.

B4: hBU12-Linking Assembly Unit Aa-Comp. Aa (8) (conjugate, chains of the INN, looked up)
VH: QVQLQESGPGLVKPSQTLSLTCTVSGGSISTSGMGVGWIRQHPGKGLEWIGHIWWDDDKRYNPALKSRVTISVDTSKNQFSLKLSSVTAADTAVYYCARMELWSYYFDYWGQGTLVTVSS
VL: EIVLTQSPATLSLSPGERATLSCSASSSVSYMHWYQQKPGQAPRLLIYDTSKLASGIPARFSGSGSGTDFTLTISSLEPEDVAVYYCFQGSVYPFTFGQGTKLEIK
modifications: linker assembly with compound Aa
Regarding B4, the IC50 in the test on Nalm-6 is listed as 8 ng/mL; with RL it was 4 ng/mL.

B5: hBU12-Linking Assembly Unit Aa-Comp. Ab (16) (conjugate, chains of the INN, looked up)
VH: QVQLQESGPGLVKPSQTLSLTCTVSGGSISTSGMGVGWIRQHPGKGLEWIGHIWWDDDKRYNPALKSRVTISVDTSKNQFSLKLSSVTAADTAVYYCARMELWSYYFDYWGQGTLVTVSS
VL: EIVLTQSPATLSLSPGERATLSCSASSSVSYMHWYQQKPGQAPRLLIYDTSKLASGIPARFSGSGSGTDFTLTISSLEPEDVAVYYCFQGSVYPFTFGQGTKLEIK
modifications: linker assembly with compound Ab
With B5, the IC50 in the test on Raji came to 6.9 ng/mL; with WSU-DLCL2 it was 8.6 ng/mL.

B6: hBU12-Linking Assembly Unit Aa-Comp. Ab (8) (conjugate, chains of the INN, looked up)
VH: QVQLQESGPGLVKPSQTLSLTCTVSGGSISTSGMGVGWIRQHPGKGLEWIGHIWWDDDKRYNPALKSRVTISVDTSKNQFSLKLSSVTAADTAVYYCARMELWSYYFDYWGQGTLVTVSS
VL: EIVLTQSPATLSLSPGERATLSCSASSSVSYMHWYQQKPGQAPRLLIYDTSKLASGIPARFSGSGSGTDFTLTISSLEPEDVAVYYCFQGSVYPFTFGQGTKLEIK
modifications: linker assembly with compound Ab
Consider B6, for which the IC50 in the test on Nalm-6 was found to be 5 ng/mL; in the test with RL it was 340 ng/mL.

B7: hBU12-Linking Assembly Unit Aa-Comp. Aa (8)-Comp. Ah (8) (conjugate, chains of the INN, looked up)
VH: QVQLQESGPGLVKPSQTLSLTCTVSGGSISTSGMGVGWIRQHPGKGLEWIGHIWWDDDKRYNPALKSRVTISVDTSKNQFSLKLSSVTAADTAVYYCARMELWSYYFDYWGQGTLVTVSS
VL: EIVLTQSPATLSLSPGERATLSCSASSSVSYMHWYQQKPGQAPRLLIYDTSKLASGIPARFSGSGSGTDFTLTISSLEPEDVAVYYCFQGSVYPFTFGQGTKLEIK
modifications: linker assembly with compounds Aa and Ah
Turning to B7, the figures for the IC50 in the test on Raji, with WSU-DLCL2 and with RL were 5 ng/mL, 2 ng/mL and 2 ng/mL, respectively.

B8: hBU12-Linking Assembly Unit Aa-Comp. Aa (16) (conjugate, chains of the INN, looked up)
VH: QVQLQESGPGLVKPSQTLSLTCTVSGGSISTSGMGVGWIRQHPGKGLEWIGHIWWDDDKRYNPALKSRVTISVDTSKNQFSLKLSSVTAADTAVYYCARMELWSYYFDYWGQGTLVTVSS
VL: EIVLTQSPATLSLSPGERATLSCSASSSVSYMHWYQQKPGQAPRLLIYDTSKLASGIPARFSGSGSGTDFTLTISSLEPEDVAVYYCFQGSVYPFTFGQGTKLEIK
modifications: Linking Assembly Unit Aa-Compound Aa drug conjugate
In the case of B8, the IC50 in the test on Raji was 2.1 ng/mL; in the test with WSU-DLCL2, 1.5 ng/mL.

B9: hLIV22-Linking Assembly Unit Aa (8)-MMAE (16) (conjugate, chains of the INN, looked up)
VH: QVQLVQSGAEVKKPGASVKVSCKASGLTIEDYYMHWVRQAPGQGLEWMGWIDPENGDTEYGPKFQGRVTMTRDTSINTAYMELSRLRSDDTAVYYCAVHNAHYGTWFAYWGQGTLVTVSS
VL: DVVMTQSPLSLPVTLGQPASISCRSSQSLLHSSGNTYLEWYQQRPGQSPRPLIYKISTRFSGVPDRFSGSGSGTDFTLKISRVEAEDVGVYYCFQGSHVPYTFGGGTKVEIK
modifications: Linking Assembly Unit Aa-MMAE conjugate
B9: the Colony forming units in test [1] came out at 42.5.

B10: hLIV22-Linking Assembly Unit Aa (8)-Comp. Aa (8)-MMAE (8) (conjugate, chains of the INN, looked up)
VH: QVQLVQSGAEVKKPGASVKVSCKASGLTIEDYYMHWVRQAPGQGLEWMGWIDPENGDTEYGPKFQGRVTMTRDTSINTAYMELSRLRSDDTAVYYCAVHNAHYGTWFAYWGQGTLVTVSS
VL: DVVMTQSPLSLPVTLGQPASISCRSSQSLLHSSGNTYLEWYQQRPGQSPRPLIYKISTRFSGVPDRFSGSGSGTDFTLKISRVEAEDVGVYYCFQGSHVPYTFGGGTKVEIK
modifications: Linking Assembly Unit Aa, Compound Aa, MMAE conjugate
In test [1], B10 had a Colony forming units of 19.5.

These data come from patent publication US11541128B2, “Multi-drug antibody drug conjugates” (Seagen Inc., priority 2016, dated 2023).
